Experimental findings from US20210115100A1 are described below.

Test in all cases: cell-based or functional assay
Test [1] deals with wild type human pro-BMP7 (human) (UniProt P18075).
In test [2] the target is human pro-BMP7 protein variant F9 (human) (UniProt P18075).
Test [3] concerns the target human mature BMP7 protein variant F9 (SEQ ID NO: 8) (human) (UniProt P18075).
In test [4] the target is wild type human mature BMP7 (SEQ ID NO: 2) (human) (UniProt P18075).
Sequence of wild type human mature BMP7 (SEQ ID NO: 2) (human) (P18075 293-431): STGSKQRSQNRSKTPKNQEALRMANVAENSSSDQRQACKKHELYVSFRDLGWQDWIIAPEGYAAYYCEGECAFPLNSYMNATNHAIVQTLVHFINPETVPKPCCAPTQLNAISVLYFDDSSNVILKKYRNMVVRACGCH

Sequence of human pro-BMP7 protein variant F9 (human) (P18075 other isoform, or with tags, fused parts or gaps mutant, chain 1 of 2): as the sequence (P18075 293-431) above, with Y65G, I86L, F93V, N110G, Y128W counted along it
Sequence of human pro-BMP7 protein variant F9 (human) (P18075 other isoform, or with tags, fused parts or gaps mutant, chain 2 of 2): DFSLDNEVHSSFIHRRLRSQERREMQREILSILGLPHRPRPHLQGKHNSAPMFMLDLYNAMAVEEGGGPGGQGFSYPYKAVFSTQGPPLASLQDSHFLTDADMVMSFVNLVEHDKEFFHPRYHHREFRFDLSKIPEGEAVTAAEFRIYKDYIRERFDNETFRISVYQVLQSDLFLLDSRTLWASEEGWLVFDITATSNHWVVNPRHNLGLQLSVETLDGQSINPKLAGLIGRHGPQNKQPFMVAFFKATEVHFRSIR
Sequence of human mature BMP7 protein variant F9 (SEQ ID NO: 8) (human) (P18075 other isoform, or with tags, fused parts or gaps mutant): as the sequence (P18075 293-431) above, with Y65G, I86L, F93V, N110G, Y128W counted along it
Sequence of wild type human pro-BMP7 (human) (P18075 293-431, chain 1 of 2): as the sequence (P18075 293-431) above
Sequence of wild type human pro-BMP7 (human) (P18075 other isoform, or with tags, fused parts or gaps, chain 2 of 2): as the sequence (P18075 other isoform, or with tags, fused parts or gaps mutant, chain 2 of 2) above

B1: Noggin (protein, UniProt Q13253 28-232, looked up, species assumed)
Noggin: QHYLHIRPAPSDNLPLVDLIEHPDPIFDPKEKDLNETLLRSLLGGHYDPGFMATSPPEDRPGGGGGAAGGAEDLAELDQLLRQRPSGAMPSEIKGLEFSEGLAQGKKQRLSKKLRRKLQMWLWSQTFCPVLYAWNDLGSRFWPRYVKVGSCFSKRSCSVPEGMVCKPSKSVHLTVLRWRCQRRGGQRCGWIPIQYPIISECKCSC
With B1, in test [1], the % inhibition, 0.1X molar excess of inhibitor (hepcidin promoter luciferase, Hep3B2 HepPro luc cells) is -5.3%; the % inhibition, 1X molar excess of inhibitor (hepcidin promoter luciferase, Hep3B2 HepPro luc cells) was 24.8%; the % inhibition, 10X molar excess of inhibitor (hepcidin promoter luciferase, Hep3B2 HepPro luc cells) was 84.8%; the % inhibition, 100X molar excess of inhibitor (hepcidin promoter luciferase, Hep3B2 HepPro luc cells) came to 87.3%. Besides, in test [2], the % inhibition, 0.1X molar excess of inhibitor (hepcidin promoter luciferase, Hep3B2 HepPro luc cells) was -15.2%; the % inhibition, 1X molar excess of inhibitor (hepcidin promoter luciferase, Hep3B2 HepPro luc cells) is -18.3%; the % inhibition, 10X molar excess of inhibitor (hepcidin promoter luciferase, Hep3B2 HepPro luc cells) is -23.6%; the % inhibition, 100X molar excess of inhibitor (hepcidin promoter luciferase, Hep3B2 HepPro luc cells) is -28.1%. In test [3], the % inhibition, 0.01X molar excess of inhibitor (hepcidin promoter luciferase, Hep3B2 HepPro luc cells) is -2.6%; the % inhibition, 0.1X molar excess of inhibitor (hepcidin promoter luciferase, Hep3B2 HepPro luc cells) was -7.2%; the % inhibition, 1X molar excess of inhibitor (hepcidin promoter luciferase, Hep3B2 HepPro luc cells) was -6.9%; the % inhibition, 10X molar excess of inhibitor (hepcidin promoter luciferase, Hep3B2 HepPro luc cells) is -1.2%. Further, in test [4], the % inhibition, 0.1X molar excess of inhibitor (hepcidin promoter luciferase, Hep3B2 HepPro luc cells) was -12.2%; the % inhibition, 1X molar excess of inhibitor (hepcidin promoter luciferase, Hep3B2 HepPro luc cells) is 36.7%; the % inhibition, 10X molar excess of inhibitor (hepcidin promoter luciferase, Hep3B2 HepPro luc cells) stood at 72.8%; the % inhibition, 100X molar excess of inhibitor (hepcidin promoter luciferase, Hep3B2 HepPro luc cells) was 73.7%.

B2: Coco (protein, UniProt Q8N907 23-189, looked up, species assumed)
DAN domain family member 5: RPEPQSPRPQSWAAANQTWALGPGALPPLVPASALGSWKAFLGLQKARQLGMGRLQRGQDEVAAVTLPLNPQEVIQGMCKAVPFVQVFSRPGCSAIRLRNHLCFGHCSSLYIPGSDPTPLVLCNSCMPARKRWAPVVLWCLTGSSASRRRVKISTMLIEGCHCSPKA
For B2, in test [1], the % inhibition, 0.1X molar excess of inhibitor (hepcidin promoter luciferase, Hep3B2 HepPro luc cells) was -10.2%; the % inhibition, 1X molar excess of inhibitor (hepcidin promoter luciferase, Hep3B2 HepPro luc cells) came to 4%; the % inhibition, 10X molar excess of inhibitor (hepcidin promoter luciferase, Hep3B2 HepPro luc cells) amounted to 17.4%; the % inhibition, 100X molar excess of inhibitor (hepcidin promoter luciferase, Hep3B2 HepPro luc cells) came to 81.6%. Besides, in test [2], the % inhibition, 0.1X molar excess of inhibitor (hepcidin promoter luciferase, Hep3B2 HepPro luc cells) was -35.4%; the % inhibition, 1X molar excess of inhibitor (hepcidin promoter luciferase, Hep3B2 HepPro luc cells) is -27.5%; the % inhibition, 10X molar excess of inhibitor (hepcidin promoter luciferase, Hep3B2 HepPro luc cells) came out at 7%. Further, in test [3], the % inhibition, 0.01X molar excess of inhibitor (hepcidin promoter luciferase, Hep3B2 HepPro luc cells) was 2.3%; the % inhibition, 0.1X molar excess of inhibitor (hepcidin promoter luciferase, Hep3B2 HepPro luc cells) was 7%; the % inhibition, 1X molar excess of inhibitor (hepcidin promoter luciferase, Hep3B2 HepPro luc cells) came to 7.3%; the % inhibition, 10X molar excess of inhibitor (hepcidin promoter luciferase, Hep3B2 HepPro luc cells) amounted to 28.5%. For the same molecule, in test [4], the % inhibition, 0.1X molar excess of inhibitor (hepcidin promoter luciferase, Hep3B2 HepPro luc cells) was -23.6%; the % inhibition, 1X molar excess of inhibitor (hepcidin promoter luciferase, Hep3B2 HepPro luc cells) was -25.9%; the % inhibition, 10X molar excess of inhibitor (hepcidin promoter luciferase, Hep3B2 HepPro luc cells) is 37.6%; the % inhibition, 100X molar excess of inhibitor (hepcidin promoter luciferase, Hep3B2 HepPro luc cells) is 77.4%.
